Assay results: publication PMC8514580, “Insight into the interaction between the RNA helicase CGH-1 and EDC-3 and its implications” (Scientific Reports, 2021)

Key:
Assay in all cases: ITC; ligand (peptide or CAR-1 fragment, 0.5 mM) injected into CGH-1_(248-420) or mutant (0.05 mM) in the cell; 20 °C; Buffer B (20 mM Tris-HCl pH 7.5, 150 mM NaCl); one-binding-site model
Details in all cases: both partners purified
[1] = target: T1, CGH-1_(248–420) wild type (CGH-1 RecA2 domain) (C. elegans, UniProt Q95YF3 248-420)
T1 construct: Cloned into NdeI/XhoI of a modified pET-28a in which the thrombin cleavage site was removed; also called CGH-1_248-420^WT; source: E. coli Gold (DE3), purified (Ni-chelating resin, SEC Superdex 75)
T1 sequence (looked up): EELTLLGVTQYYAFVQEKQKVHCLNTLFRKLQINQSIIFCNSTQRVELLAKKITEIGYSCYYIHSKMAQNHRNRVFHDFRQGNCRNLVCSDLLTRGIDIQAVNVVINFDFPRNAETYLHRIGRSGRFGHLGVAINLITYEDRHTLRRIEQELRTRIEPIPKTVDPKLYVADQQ

CGH-1_(248–420) Q266A = target: T2, CGH-1_(248–420) Q266A (C. elegans, UniProt Q95YF3 248-420, Q266A)
T2 construct: Mutant of m1 made with the MutanBEST kit; source: E. coli Gold (DE3), purified (Ni-chelating resin, SEC Superdex 75)
T2 sequence (looked up): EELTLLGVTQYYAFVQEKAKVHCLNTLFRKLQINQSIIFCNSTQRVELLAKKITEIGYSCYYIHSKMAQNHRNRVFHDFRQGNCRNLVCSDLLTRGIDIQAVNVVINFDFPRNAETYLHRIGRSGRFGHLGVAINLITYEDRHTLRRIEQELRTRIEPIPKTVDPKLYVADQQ

CGH-1_(248–420) H269A = target: T3, CGH-1_(248–420) H269A (C. elegans, UniProt Q95YF3 248-420, H269A)
T3 construct: Mutant of m1 made with the MutanBEST kit; source: E. coli Gold (DE3), purified (Ni-chelating resin, SEC Superdex 75)
T3 sequence (looked up): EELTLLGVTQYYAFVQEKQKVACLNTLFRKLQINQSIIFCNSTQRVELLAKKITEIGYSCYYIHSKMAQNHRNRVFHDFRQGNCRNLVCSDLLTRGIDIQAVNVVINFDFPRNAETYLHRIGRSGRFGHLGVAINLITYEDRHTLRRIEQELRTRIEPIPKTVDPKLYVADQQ

CGH-1_(248–420) K277A = target: T4, CGH-1_(248–420) K277A (C. elegans, UniProt Q95YF3 248-420, K277A)
T4 construct: Mutant of m1 made with the MutanBEST kit; source: E. coli Gold (DE3), purified (Ni-chelating resin, SEC Superdex 75)
T4 sequence (looked up): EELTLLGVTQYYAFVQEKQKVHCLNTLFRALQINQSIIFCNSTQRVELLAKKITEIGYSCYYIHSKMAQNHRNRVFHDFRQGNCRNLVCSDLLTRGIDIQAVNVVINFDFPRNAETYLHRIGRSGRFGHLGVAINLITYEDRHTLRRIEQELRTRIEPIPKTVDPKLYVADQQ

CGH-1_(248–420) K277E = target: T5, CGH-1_(248–420) K277E (C. elegans, UniProt Q95YF3 248-420, K277E)
T5 construct: Mutant of m1 made with the MutanBEST kit; source: E. coli Gold (DE3), purified (Ni-chelating resin, SEC Superdex 75)
T5 sequence (looked up): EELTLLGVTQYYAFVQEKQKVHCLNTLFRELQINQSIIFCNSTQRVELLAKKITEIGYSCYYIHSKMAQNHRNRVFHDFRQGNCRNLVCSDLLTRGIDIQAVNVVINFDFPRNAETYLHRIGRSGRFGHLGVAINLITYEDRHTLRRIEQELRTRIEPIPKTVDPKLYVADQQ

CGH-1_(248–420) E396A = target: T6, CGH-1_(248–420) E396A (C. elegans, UniProt Q95YF3 248-420, E396A)
T6 construct: Mutant of m1 made with the MutanBEST kit; source: E. coli Gold (DE3), purified (Ni-chelating resin, SEC Superdex 75)
T6 sequence (looked up): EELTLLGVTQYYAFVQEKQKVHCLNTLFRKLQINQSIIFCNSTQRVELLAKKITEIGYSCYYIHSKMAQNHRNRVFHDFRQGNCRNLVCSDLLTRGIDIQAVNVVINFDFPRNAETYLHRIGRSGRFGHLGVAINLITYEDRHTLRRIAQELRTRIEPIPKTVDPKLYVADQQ

[2] = target: T7, CGH-1_(248–420) 4A mutant (His269, Cys270, Thr273 and Leu274 to Ala) (C. elegans, UniProt Q95YF3 248-420, His269 to Ala | Cys270 to Ala | Thr273 to Ala | Leu274 to Ala)
T7 construct: Mutant of m1 made with the MutanBEST kit; also called four-alanine mutant; source: E. coli Gold (DE3), purified (Ni-chelating resin, SEC Superdex 75)
T7 sequence (looked up): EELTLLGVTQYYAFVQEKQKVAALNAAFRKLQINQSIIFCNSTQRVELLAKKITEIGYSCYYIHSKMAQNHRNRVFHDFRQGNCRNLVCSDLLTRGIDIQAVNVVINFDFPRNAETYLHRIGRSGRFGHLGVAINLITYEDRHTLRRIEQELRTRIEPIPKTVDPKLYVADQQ

B1: PATR-1 peptide (CePATR-1_(30–67)) (peptide)
peptide: SDEDHNIFDDEFDAANDETFGGGLDNIGENAELENYAT
notes: PATR-1 (Pat1 ortholog), C. elegans, residues 30-67; Printed with free NH2 and COOH ends; also called PATR1_30-67^WT; CePATR-1 peptide; source: synthetic peptide (GL Biochem, Shanghai)
In the case of B1, the Kd [1] is reported as 2130 ± 380 nM, the dH [1] is reported as -15.8 ± 0.62 kcal/mol and the “stoichiometry N” value [1] is reported as 0.88. For the same binder, the Kd (CGH-1_(248–420) Q266A) was 2970 ± 290 nM, the dH (CGH-1_(248–420) Q266A) was -16.6 ± 0.41 kcal/mol and the “stoichiometry N” value (CGH-1_(248–420) Q266A) was 0.86. For the same binder, the Kd (CGH-1_(248–420) H269A) was 2670 ± 440 nM, the dH (CGH-1_(248–420) H269A) was -15.4 ± 0.67 kcal/mol and the “stoichiometry N” value (CGH-1_(248–420) H269A) was 0.94. The Kd (CGH-1_(248–420) K277A) was 4430 ± 420 nM, the dH (CGH-1_(248–420) K277A) was -17.2 ± 0.57 kcal/mol and the “stoichiometry N” value (CGH-1_(248–420) K277A) was 1.07. The Kd (CGH-1_(248–420) K277E) was 8290 ± 990 nM, the dH (CGH-1_(248–420) K277E) was -19.6 ± 0.95 kcal/mol and the “stoichiometry N” value (CGH-1_(248–420) K277E) was 1.07. The Kd (CGH-1_(248–420) E396A) was 2960 ± 340 nM, the dH (CGH-1_(248–420) E396A) was -16.3 ± 0.47 kcal/mol and the “stoichiometry N” value (CGH-1_(248–420) E396A) was 0.93. For the same binder, the Kd [2] was 2060 ± 270 nM, the dH [2] was -15.4 ± 0.44 kcal/mol and the “stoichiometry N” value [2] was 0.79.
